Values of other authors in paper PMC2904412.

Molecular target: thrombomodulin (Homo sapiens) (UniProt P07204)

Kd: < 1 nM
Substance: thrombin (from UniProt P00734)
